Source: EP4223782A1 (dated 2023)

Columns and labels:
[1] = biological target: T1, TGFβR2(-1) frameshift variant (deletion of one adenine in the 10-adenine microsatellite) peptide on … (human); test: IFNγ ELISA after 16 h; transduced human CD4+ T cells with BSM cells pulsed with decreasing amounts of peptide; lower bound of the printed range; full-length, on cells
T1 peptide: VALMSAMTTSSSQKN

[2] = biological target: T1, TGFβR2(-1) frameshift variant (deletion …); test: IFNγ ELISA after 16 h; transduced human CD4+ T cells with BSM cells pulsed with decreasing amounts of peptide; upper bound of the printed range; full-length, on cells
[3] = biological target: TGFβR2(-1) peptide … presented on HLA-DRA/HLA-DRB1*04:01 (human); test: cell-based or functional assay

B1: TCR1414_2 (TCR, V domains shown)
Valpha: GIQVEQSPPDLILQEGANSTLRCNFSDSVNNLQWFHQNPWGQLINLFYIPSGTKQNGRLSATTVATERYSLLYISSSQTTDSGVYFCAAPSGNTPLVFGKGTRLSVIA
Vbeta: DVKVTQSSRYLVKRTGEKVFLECVQDMDHENMFWYRQDPGLGLRLIYFSYDVKMKEKGDIPEGYSVSREKKERFSLILESASTNQTSMYLCASRVSGANVLTFGAGSRLTVL
- EC50 of peptide [1]: > 1 nM
- EC50 of peptide [2]: < 10 nM
- lowest peptide concentration recognized (IFNy ELISA, BSM cells loaded with different concentrations of peptide) [3]: 1 nM

B2: TCR1414_1 (TCR, V domains shown)
Valpha: KQEVTQIPAALSVPEGENLVLNCSFTDSAIYNLQWFRQDPGKGLTSLLLIQSSQREQTSGRLNASLDKSSGRSTLYIAASQPGDSATYLCAVKSGAGSYQLTFGKGTKLSVIP
Vbeta: NAGVMQNPRHLVRRRGQEARLRCSPMKGHSHVYWYRQLPEEGLKFMVYLQKENIIDESGMPKERFSAEFPKEGPSILRIQQVVRGDSAAYFCASSPFQETQYFGPGTRLLVL
- EC50 of peptide [1]: > 1 nM
- EC50 of peptide [2]: < 10 nM
- lowest peptide concentration recognized (IFNy ELISA, BSM cells loaded with different concentrations of peptide) [3]: 1 nM
